We go through one substance from PMC3649978.

This assay addresses EB1 (competitive binding assay, source not named) (UniProt Q61166). Put plainly: competitive binding assay; data not shown; p104_(554–593) as competitor of EB1 binding to recombinant p104.
UniProt Q61166, sequence (Q61166 whole entry): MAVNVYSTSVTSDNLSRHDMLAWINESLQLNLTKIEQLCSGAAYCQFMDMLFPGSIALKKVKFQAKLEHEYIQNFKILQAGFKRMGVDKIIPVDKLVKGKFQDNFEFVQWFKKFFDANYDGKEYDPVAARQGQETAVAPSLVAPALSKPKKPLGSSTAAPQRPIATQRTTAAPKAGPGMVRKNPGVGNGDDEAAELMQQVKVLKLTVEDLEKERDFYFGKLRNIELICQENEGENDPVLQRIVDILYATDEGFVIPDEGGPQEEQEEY

Take “p104_(554–593) (soluble 40 aa fragment of p104; recombinant form GFP-p104_(554–593)) (domain or fragment)”: the molar excess for 50% inhibition (fold molar excess) was 3.
